The results in this text go back to article PMC3903622, “Kinetics of Phosphomevalonate Kinase from Saccharomyces cerevisiae” (PLoS ONE, 2014).

Substrate in series [1]: Nc1ncnc2c1ncn2[C@@H]1O[C@H](COP(=O)(O)OP(=O)(O)OP(=O)(O)O)[C@@H](O)[C@H]1O
As to the kind of experiment: purified protein. The settings on record: co-substrate mevalonate-5-phosphate (0.2–10.0 mM range), 10 mM MgCl2, 100 mM KCl, 200 mM Tris pH 7.2, 30°C. It is filed as biochemical, Saccharomyces cerevisiae.

Substrate in series [2]: C[C@@](O)(CCOP(=O)(O)O)CC(=O)O
Kind of series: purified protein. Type of series: biochemical, Saccharomyces cerevisiae. The settings on record: co-substrate ATP (0.1–8.0 mM range), 10 mM MgCl2, 100 mM KCl, 200 mM Tris pH 7.2, 30°C.

B1: phosphomevalonate kinase (PMK) from S. cerevisiae; PMK-His (Saccharomyces cerevisiae S288C) (protein)
chain: MSELRAFSAPGKALLAGGYLVLDTKYEAFVVGLSARMHAVAHPYGSLQGSDKFEVRVKSKQFKDGEWLYHISPKSGFIPVSIGGSKNPFIEKVIANVFSYFKPNMDDYCNRNLFVIDIFSDDAYHSQEDSVTEHRGNRRLSFHSHRIEEVPKTGLGSSAGLVTVLTTALASFFVSDLENNVDKYREVIHNLAQVAHCQAQGKIGSGFDVAAAAYGSIRYRRFPPALISNLPDIGSATYGSKLAHLVDEEDWNITIKSNHLPSGLTLWMGDIKNGSETVKLVQKVKNWYDSHMPESLKIYTELDHANSRFMDGLSKLDRLHETHDDYSDQIFESLERNDCTCQKYPEITEVRDAVATIRRSFRKITKESGADIEPPVQTSLLDDCQTLKGVLTCLIPGAGGYDAIAVITKQDVDLRAQTANDKRFSKVQWLDVTQADWGVRKEKDPETYLDK
notes: E. coli codon-optimized gene in pET-52b+, C-terminal 6xHis tag (removal not mentioned), expressed in E. coli BL21(DE3), Ni-NTA purified
As to B1, the Km turned out to be 98.3 µM in series [1] and 885 µM in series [2].

For orientation: Km means the concentration of substrate that gives half-maximal velocity.
